Assay in all cases: pull-down; GST-ferric Ngb (or GST alone) immobilised on glutathione-Sepharose 4B beads, incubated with truncated Gαi1; 10 mM HEPES, 150 mM NaCl, 10 mM MgCl2, 10 uM GDP, 0.1% Tween20, pH 7.4; 1 h at 4 °C; Western blot with anti-Gαi1 monoclonal antibody
Common to all, as to details: both partners purified
On the technique in general: In western blotting, separated proteins are transferred to a membrane and probed.

The target in test [1] is T1, human WT truncated Gαi1 protein (residues 26-354), GDP-bound form (human, UniProt P63096 26-354).
T1 construct: human Gαi1 (α-subunit of heterotrimeric Gi protein), residues 26-354; lacks the N-terminal disordered region (25 amino acids); Cloned in pET151/D-TOPO with a TEV site after the His6-tag; also called WT Gαi1; not shown: His6, N-terminal, cleaved
T1 sequence (P63096 26-354): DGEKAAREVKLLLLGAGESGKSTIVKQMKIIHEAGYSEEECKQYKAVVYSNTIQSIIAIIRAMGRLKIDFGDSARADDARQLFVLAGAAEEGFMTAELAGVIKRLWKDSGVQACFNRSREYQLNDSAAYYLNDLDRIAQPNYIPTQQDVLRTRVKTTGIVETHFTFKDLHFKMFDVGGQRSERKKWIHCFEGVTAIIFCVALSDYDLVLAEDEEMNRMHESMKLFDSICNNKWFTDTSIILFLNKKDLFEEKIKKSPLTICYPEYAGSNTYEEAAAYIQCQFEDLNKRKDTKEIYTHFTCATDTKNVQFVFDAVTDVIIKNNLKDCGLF

Test [2] concerns the target T2, human truncated Gαi1 E236Q single mutant, GDP-bound form (human, UniProt P63096 26-354, E236Q).
T2 construct: human Gαi1, residues 26-354, with E236Q; site-directed mutant of the truncated Gαi1 construct; also called E236Q Gαi1; not shown: His6, N-terminal, cleaved

For test [3], the target named is T3, human truncated Gαi1 K67A single mutant, GDP-bound form (human, UniProt P63096 26-354, K67A).
T3 construct: human Gαi1, residues 26-354, with K67A; site-directed mutant of the truncated Gαi1 construct; also called K67A Gαi1; not shown: His6, N-terminal, cleaved
T3 sequence (P63096 26-354 K67A): as the sequence (P63096 26-354) above, with K42A counted along it

Test [4] deals with T4, human truncated Gαi1 K180L single mutant, GDP-bound form (human, UniProt P63096 26-354, K180L).
T4 construct: human Gαi1, residues 26-354, with K180L (Leu is the corresponding residue of human Gαs); site-directed mutant of the truncated Gαi1 construct; also called K180L Gαi1; not shown: His6, N-terminal, cleaved
T4 sequence (P63096 26-354 K180L): as the sequence (P63096 26-354) above, with K155L counted along it

Test [5] concerns the target T5, human truncated Gαi1 R86A single mutant, GDP-bound form (human, UniProt P63096 26-354, R86A).
T5 construct: human Gαi1, residues 26-354, with R86A; site-directed mutant of the truncated Gαi1 construct; also called R86A Gαi1; not shown: His6, N-terminal, cleaved

Test [6] addresses T6, human truncated Gαi1 E238N, E239Q double mutant, GDP-bound form (human, UniProt P63096 26-354, E238N | E239Q).
T6 construct: human Gαi1, residues 26-354, with E238N and E239Q (the corresponding residues of human Gαs); site-directed mutant of the truncated Gαi1 construct; also called E238N, E239Q Gαi1 double mutant; not shown: His6, N-terminal, cleaved

T5 sequence (P63096 26-354 R86A): as the sequence (P63096 26-354) above, with R61A counted along it
T6 sequence (P63096 26-354 E238N/E239Q): as the sequence (P63096 26-354) above, with E213N, E214Q counted along it
T2 sequence (P63096 26-354 E236Q): as the sequence (P63096 26-354) above, with E211Q counted along it

B1: GST-human ferric E151Q Ngb mutant (natural protein)
chain: MERPEPELIRQSWRAVSRSPLEHGTVLFARLFALEPDLLPLFQYNCRQFSSPEDCLSSPEFLDHIRKVMLVIDAAVTNVEDLSSLEEYLASLGRKHRAVGVKLSSFSTVGESLLYMLEKCLGPAFTPATRAAWSQLYGAVVQAMSRGWDGQ
notes: human neuroglobin (Ngb) with E151Q (the residue of bush baby Ngb at this position); in pGEX-4T-1; Ferric form; made by site-directed mutagenesis of GST-Ngb; also called GST-human Ngb mutant; source: E. coli BL21 (DE3), purified (glutathione-Sepharose 4B)
Regarding B1, the binding result in test [1] is on record as “binds”.

B2: GST-human ferric WT Ngb (neuroglobin) (natural protein)
chain: MERPEPELIRQSWRAVSRSPLEHGTVLFARLFALEPDLLPLFQYNCRQFSSPEDCLSSPEFLDHIRKVMLVIDAAVTNVEDLSSLEEYLASLGRKHRAVGVKLSSFSTVGESLLYMLEKCLGPAFTPATRAAWSQLYGAVVQAMSRGWDGE
notes: human neuroglobin (Ngb); human Ngb cDNA cloned into pGEX-4T-1; also called GST-human WT Ngb; GST-human Ngb; source: E. coli BL21 (DE3), purified (glutathione-Sepharose 4B)
As for B2, the binding result in test [2], in test [3], in test [1], in test [4], in test [5] and in test [6] was “binds” in each case.

B3: GST-human ferric R97C Ngb mutant (natural protein)
chain: MERPEPELIRQSWRAVSRSPLEHGTVLFARLFALEPDLLPLFQYNCRQFSSPEDCLSSPEFLDHIRKVMLVIDAAVTNVEDLSSLEEYLASLGRKHCAVGVKLSSFSTVGESLLYMLEKCLGPAFTPATRAAWSQLYGAVVQAMSRGWDGE
notes: human neuroglobin (Ngb) with R97C (the residue of megabat Ngb at this position); in pGEX-4T-1; Ferric form; made by site-directed mutagenesis of GST-Ngb; also called GST-human Ngb mutant; source: E. coli BL21 (DE3), purified (glutathione-Sepharose 4B)
For B3, in test [1], the binding result is listed as “binds”.

The record behind these values is paper PMC4842972, “Identification of residues crucial for the interaction between human neuroglobin and the α-subunit of heterotrimeric Gi protein” (Scientific Reports, 2016).
